In US20070219354A1:

Target: APP695-derived polypeptide (SEQ. ID. NO.:28) having the modified sequence NLDV (SEQ. ID. NO.:7) (Homo sapiens (Human)) (UniProt P05067)
Experiment: cell-based or functional assay

- Aβ production in HEK293T cells (IP/Western, densitometry) (times the level of wild type APP695): > 3
Substance: β-secretase of the HEK293T cells used in Example 4 (from UniProt P56817 46-501) (enzyme)
